Test results reported in US20260023068A1, “USE OF A FBXO42 SPECIFIC INHIBITOR IN TREATING NOTCH SIGNALING-DEPENDENT DISEASE” (WESTLAKE UNIVERSITY, priority 2022, published 2026).

Experiments:
[1] = biological target: cSFB-tagged RBPJ (recombination signal-binding protein of immunoglobulin kappa J region with C-terminal SFB tag), Q06330; test: biomolecular interaction kinetics with purified proteins; RBPJ at 225 nM loaded on SA probe, FBXO42 at 19.5-625 nM; conditions: remark: other sources report otherwise
Sequence of cSFB-tagged RBPJ (recombination signal-binding protein of immunoglobulin kappa J region with C-terminal SFB tag), Q06330 (Q06330 whole entry): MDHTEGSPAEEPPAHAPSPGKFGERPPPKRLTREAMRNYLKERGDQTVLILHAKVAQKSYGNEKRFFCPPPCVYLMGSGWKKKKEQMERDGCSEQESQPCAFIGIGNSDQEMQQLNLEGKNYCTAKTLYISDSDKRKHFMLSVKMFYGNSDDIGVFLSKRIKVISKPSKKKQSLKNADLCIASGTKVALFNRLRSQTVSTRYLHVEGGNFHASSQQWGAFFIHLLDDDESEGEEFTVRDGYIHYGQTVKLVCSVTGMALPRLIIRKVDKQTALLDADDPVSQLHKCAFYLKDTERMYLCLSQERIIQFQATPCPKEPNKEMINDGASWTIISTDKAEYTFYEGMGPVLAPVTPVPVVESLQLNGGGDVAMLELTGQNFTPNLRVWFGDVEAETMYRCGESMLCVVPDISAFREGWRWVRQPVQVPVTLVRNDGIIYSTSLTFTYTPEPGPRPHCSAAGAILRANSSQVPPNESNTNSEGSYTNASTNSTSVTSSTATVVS

[2] = biological target: T1, CUL1 (UniProt Q13616 1-776); test: TAP-MS with FBXO42 as the bait in HEK293T cells
T1 construct: also called Cullin-1
T1 sequence (Q13616 whole entry): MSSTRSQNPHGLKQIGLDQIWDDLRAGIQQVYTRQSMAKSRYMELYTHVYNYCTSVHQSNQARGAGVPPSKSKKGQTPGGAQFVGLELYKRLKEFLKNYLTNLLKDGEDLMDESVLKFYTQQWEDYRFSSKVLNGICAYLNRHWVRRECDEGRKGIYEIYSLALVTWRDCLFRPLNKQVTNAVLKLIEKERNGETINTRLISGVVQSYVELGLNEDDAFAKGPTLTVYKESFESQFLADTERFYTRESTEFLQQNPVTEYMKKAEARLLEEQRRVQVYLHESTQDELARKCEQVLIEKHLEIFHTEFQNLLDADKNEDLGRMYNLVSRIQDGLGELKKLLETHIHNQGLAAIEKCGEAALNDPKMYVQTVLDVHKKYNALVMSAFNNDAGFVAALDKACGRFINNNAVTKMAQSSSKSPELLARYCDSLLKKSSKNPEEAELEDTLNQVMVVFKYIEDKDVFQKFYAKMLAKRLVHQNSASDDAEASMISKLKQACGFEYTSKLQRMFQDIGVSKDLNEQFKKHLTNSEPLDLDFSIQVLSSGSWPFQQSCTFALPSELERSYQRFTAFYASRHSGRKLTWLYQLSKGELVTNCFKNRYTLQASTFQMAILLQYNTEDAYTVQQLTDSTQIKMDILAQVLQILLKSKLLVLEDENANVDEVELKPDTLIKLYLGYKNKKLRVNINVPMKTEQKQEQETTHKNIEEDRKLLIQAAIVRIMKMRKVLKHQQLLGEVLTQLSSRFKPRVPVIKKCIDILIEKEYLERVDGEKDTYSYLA
Protocol: TAP purification was performed as described previously (W Bian et al., Low-density-lipoprotein-receptor-related protein 1 mediates Notch pathway activation. Dev Cell 56, 2902-2919 e2908 (2021)). Briefly, 1×10⁸ HEK293T cells stably expressing cSFB-RBPJ or FBXO42 were lysed in 5 ml of NETN buffer (with protease inhibitors) at 4° C. for 30 min followed by TurboNuclease treatment. The lysate was then incubated with streptavidin-conjugated beads (Thermo Fisher Scientific, Waltham, MA) for 2 h at 4° C. After washing with NETN buffer, the bound proteins were eluted with NETN buffer containing 2 mg/mL biotin (Sigma, St. Louis, MO) for 2 h at 4° C. The eluates were then incubated with S-protein beads (EMD Millipore, Burlington, […]) for 4 h. The beads were washed three times with NETN buffer and subjected to SDS-PAGE, followed by Coomassie blue staining. The whole band was excised and subjected to in-gel trypsin digestion and MS analysis.
FBXO42 is a substrate-recognition component of the SKP1-CUL1-F-box protein (SCF)-type E3 ligase complex, which has been previously reported to promote p53 ubiquitination and degradation (L. Sun et al., JFK, a Kelch domain-containing F-box protein, links the SCF complex to p53 regulation. Proc Natl Acad Sci USA 106,10195-10200 (2009)). […]

[3] = biological target: T2, RBPJ (Homo sapiens, UniProt Q06330); test: Biomolecular interaction analysis with purified recombinant RBPJ and FBXO42 proteins; format: binding; conditions: in vitro, RBPJ 225 nM on SA probe, FBXO42 19.5 nM-625 nM (FIG. 3I)
T2 construct: SFB (cSFB) (C); made in house; host or cells: 293F cells
T2 sequence (Q06330 whole entry): as the sequence (Q06330 whole entry) above
Source text: (A) Interaction network of FBXO42. Top 50 interactors identified in TAP-MS was shown. (B) KEGG enrichment analysis of preys acquired in FBXO42 tandem-affinity purification (TAP)-MS. The x-axis represents gene ratio=count/set size. The size of the dots represents the number of genes associated with the GO term and the color of the dots represent the adjusted P-values. (C) Circos plot showing overlapping RBPJ and FBXO42 preys. Purple lines link the genes that shared by RBPJ and FBXO42. Blue lines link different genes enriched in the same ontology term. (D and E) HEK293T cell lysates were incubated with IgG control and antibodies against FBXO42 (D) or RBPJ (E). Five percent lysate was used as the input control. Blots with antibodies recognizing RBPJ, FBXO42 and Actin are shown. (F and G) HEK293T cells were cotransfected with Myc-tagged FBXO42 and cSFB-tagged RBPJ, as indicated. The cell lysates were incubated with S beads (F) or an anti-MYC antibody (G). Five percent lysate was used as the input control. Blots with antibodies recognizing the FLAG and MYC epitope tags and Actin are shown. (H) Coomassie blue staining of cSFB-tagged RBPJ and FLAG-FBXO42 proteins purified from 293F cells. (I) Biomolecular interaction kinetics curve showing the binding affinity between purified RBPJ and FBXO42 proteins. The RBPJ was used at 225 nM for binding to SA probe. […]

B1: cSFB-FBXO42 (FBXO42 with C-terminal SFB tag) (other, UniProt Q6P3S6 1-717, looked up)
chain: MASSSDSEDDSFMAVDQEETVLEGTMDQDEEPHPVLEAEETRHNRSMSELPEEVLEYILSFLSPYQEHKTAALVCKQWYRLIKGVAHQCYHGFMKAVQEGNIQWESRTYPYPGTPITQRFSHSACYYDANQSMYVFGGCTQSSCNAAFNDLWRLDLNSKEWIRPLASGSYPSPKAGATLVVYKDLLVLFGGWTRPSPYPLHQPERFFDEIHTYSPSKNWWNCIVTTHGPPPMAGHSSCVIDDKMIVFGGSLGSRQMSNDVWVLDLEQWAWSKPNISGPSPHPRGGQSQIVIDDATILILGGCGGPNALFKDAWLLHMHSGPWAWQPLKVENEEHGAPELWCHPACRVGQCVVVFSQAPSGRAPLSPSLNSRPSPISATPPALVPETREYRSQSPVRSMDEAPCVNGRWGTLRPRAQRQTPSGSREGSLSPARGDGSPILNGGSLSPGTAAVGGSSLDSPVQAISPSTPSAPEGYDLKIGLSLAPRRGSLPDQKDLRLGSIDLNWDLKPASSSNPMDGMDNRTVGGSMRHPPEQTNGVHTPPHVASALAGAVSPGALRRSLEAIKAMSSKGPSASAALSPPLGSSPGSPGSQSLSSGETVPIPRPGPAQGDGHSLPPIARRLGHHPPQSLNVGKPLYQSMNCKPMQMYVLDIKDTKEKGRVKWKVFNSSSVVGPPETSLHTVVQGRGELIIFGGLMDKKQNVKYYPKTNALYFVRAKR
notes: Stably expressed in HEK293T cells as bait for TAP-MS; also called FBXO42 bait; not shown: C-terminal SFB tag
**Q.** Which results are given for B1?
**A.** Kd [1]: 47 nM; binding result [2]: binds

B2: FBXO42: purified recombinant F-box protein 42, substrate-recognition component of the SCF-type E3 ligase complex (protein)
chain: B1 chain
modifications: left off: small tags and cut ends
notes: purified recombinant F-box protein 42, substrate-recognition component of the SCF-type E3 ligase complex
**Q.** For B2, which Kd [3] is on record?
**A.** 47 nM
